A short description of the data set: total protein half-life in vivo (active degradation + dilution); higher = more stable protein.
Setting [1] is: E. coli NCM3722 delta-clpP delta-lon delta-hslV, growth: N-lim chemostat, doubling time 6 h.
The mark [2] stands for this setting: E. coli NCM3722 delta-clpP, growth: N-lim chemostat, doubling time 6 h.
Where [3] appears, read: E. coli NCM3722 delta-hslV, growth: N-lim chemostat, doubling time 6 h.
Setting [4] is: E. coli NCM3722 delta-lon, growth: N-lim chemostat, doubling time 6 h.
[5] abbreviates: E. coli NCM3722 delta-smpB, growth: N-lim chemostat, doubling time 6 h.
Setting [6] is: wild type E. coli NCM3722, growth: C-lim chemostat, doubling time 3 h.
Setting [7] is: wild type E. coli NCM3722, growth: C-lim chemostat, doubling time 6 h.
Where [8] appears, read: wild type E. coli NCM3722, growth: C-lim chemostat, doubling time 12 h.
The mark [9] stands for this setting: wild type E. coli NCM3722, growth: N-lim chemostat, doubling time 6 h.
Where [10] appears, read: wild type E. coli NCM3722, growth: N-lim chemostat, doubling time 12 h.
Setting [11] is: wild type E. coli NCM3722, growth: P-lim chemostat, doubling time 6 h.
The mark [12] stands for this setting: wild type E. coli NCM3722, growth: P-lim chemostat, doubling time 12 h.

± gives the standard deviation of the averaged measurements.

As to “MNTVRSEKDSMGAIDVPADKLWGAQTQRSLEHFRISTEKMPTSLIHALALTKRAAAKVNEDLGLLSEEKASAIRQAADEVLAGQHDDEFPLAIWQTGSGTQSNMNMNEVLANRASELLGGVRGMERKVHPNDDVNKSQSSNDVFPTAMHVAALLALRKQLIPQLKTLTQTLNEKSRAFADIVKIGRTHLQDATPLTLGQEISGWVAMLEHNLKHIEYSLPHVAELALGGTAVGTGLNTHPEYARRVADELAVITCAPFVTAPNKFEALATCDALVQAHGALKGLAASLMKIANDVRWLASGPRCGIGEISIPENEPGSSIMPGKVNPTQCEALTMLCCQVMGNDVAINMGGASGNFELNVFRPMVIHNFLQSVRLLADGMESFNKHCAVGIEPNRERINQLLNESLMLVTALNTHIGYDKAAEIAKKAHKEGLTLKAAALALGYLSEAEFDSWVRPEQMVGSMKAGR”, the “total protein half-life in vivo” value amounted to 4.65 ± 0.1 h under setting [1]; 4.64 ± 0.49 h under setting [2]; 4.42 ± 0.081 h under setting [3]; 4.69 ± 0.13 h under setting [4]; 4.11 ± 0.091 h under setting [5]; 3.18 ± 0.23 h under setting [6]. Moreover, the “total protein half-life in vivo” value is, setting by setting: under setting [7], 5.9 ± 0.12 h; under setting [8], 9.94 ± 0.14 h; under setting [9], 4.59 ± 0.14 h; under setting [10], 7.19 ± 0.16 h; under setting [11], 5.82 ± 0.21 h; under setting [12], 12.6 ± 0.33 h.

With “MSNNALQTIINARLPGEEGLWQIHLQDGKISAIDAQSGVMPITENSLDAEQGLVIPPFVEPHIHLDTTQTAGQPNWNQSGTLFEGIERWAERKALLTHDDVKQRAWQTLKWQIANGIQHVRTHVDVSDATLTALKAMLEVKQEVAPWIDLQIVAFPQEGILSYPNGEALLEEALRLGADVVGAIPHFEFTREYGVESLHKTFALAQKYDRLIDVHCDEIDDEQSRFVETVAALAHHEGMGARVTASHTTAMHSYNGAYTSRLFRLLKMSGINFVANPLVNIHLQGRFDTYPKRRGITRVKEMLESGINVCFGHDDVFDPWYPLGTANMLQVLHMGLHVCQLMGYGQINDGLNLITHHSARTLNLQDYGIAAGNSANLIILPAENGFDALRRQVPVRYSVRGGKVIASTQPAQTTVYLEQPEAIDYKR”, the “total protein half-life in vivo” value is, setting by setting: under setting [1], 6.27 ± 0.14 h; under setting [2], 5.838 ± 0.02 h; under setting [3], 5.57 ± 0.45 h; under setting [4], 6.13 ± 0.073 h; under setting [5], 5.64 ± 0.32 h; under setting [6], 2.9 ± 0.17 h. In addition, the “total protein half-life in vivo” value under setting [7] was found to be 5.8 ± 0.1 h; the “total protein half-life in vivo” value under setting [8] is 14.3 ± 0.34 h; the “total protein half-life in vivo” value under setting [9] stood at 5.43 ± 0.29 h; the “total protein half-life in vivo” value under setting [10] stood at 12.3 ± 1.4 h; the “total protein half-life in vivo” value under setting [12] amounted to 12.7 ± 0.35 h.

With “MDQAGIIRDLLIWLEGHLDQPLSLDNVAAKAGYSKWHLQRMFKDVTGHAIGAYIRARRLSKSAVALRLTARPILDIALQYRFDSQQTFTRAFKKQFAQTPALYRRSPEWSAFGIRPPLRLGEFTMPEHKFVTLEDTPLIGVTQSYSCSLEQISDFRHEMRYQFWHDFLGNAPTIPPVLYGLNETRPSQDKDDEQEVFYTTALAQDQADGYVLTGHPVMLQGGEYVMFTYEGLGTGVQEFILTVYGTCMPMLNLTRRKGQDIERYYPAEDAKAGDRPINLRCELLIPIRR [P0ACI0]”, the “total protein half-life in vivo” value is, setting by setting: under setting [1], 5.25 ± 0.62 h; under setting [2], 5.39 ± 0.29 h; under setting [3], 5.7 ± 1.1 h; under setting [4], 5.49 ± 0.38 h; under setting [5], 5.37 ± 0.28 h; under setting [6], 2.92 ± 0.065 h. In addition, the “total protein half-life in vivo” value by setting is: under setting [7], 6.47 ± 0.27 h; under setting [8], 11.3 ± 0.12 h; under setting [9], 5.15 ± 0.4 h; under setting [10], 9.41 ± 0.68 h; under setting [11], 5.31 ± 0.06 h; under setting [12], 11.8 ± 0.37 h.

“MENQPKLNSSKEVIAFLAERFPHCFSAEGEARPLKIGIFQDLVDRVAGEMNLSKTQLRSALRLYTSSWRYLYGVKPGATRVDLDGNPCGELDEQHVEHARKQLEEAKARVQAQRAEQQAKKREAAATAGEKEDAPRRERKPRPTTPRRKEGAERKPRAQKPVEKAPKTVKAPREEQHTPVSDISALTVGQALKVKAGQNAMDATVLEITKDGVRVQLNSGMSLIVRAEHLVF”: the “total protein half-life in vivo” value under setting [1] came to 6.28 ± 0.52 h; the “total protein half-life in vivo” value under setting [2] came to 4.08 ± 0.88 h; the “total protein half-life in vivo” value under setting [3] came to 3.47 ± 0.071 h; the “total protein half-life in vivo” value under setting [5] stood at 3.13 ± 0.045 h; the “total protein half-life in vivo” value under setting [6] was 2.73 ± 0.21 h; the “total protein half-life in vivo” value under setting [7] came out at 4.51 ± 0.22 h. The “total protein half-life in vivo” value by setting is: under setting [8], 6.83 ± 0.53 h; under setting [9], 3.07 ± 0.052 h; under setting [10], 4.76 ± 0.052 h; under setting [11], 2.974 ± 0.024 h; under setting [12], 4.71 ± 0.23 h.

With “MKRVLFFLLMIFVSFGVIADCEIQAKDHDCFTIFAKGTIFSAFPVLNNKAMWRWYQNEDIGEYYWQTELGTCKNNKFTPSGARLLIRVGSLRLNENHAIKGTLQELINTAEKTAFLGDRFRSYIRAGIYQKKSSDPVQLLAVLDNSIMVKYFKDEKPTYARMTAHLPNKNESYECLIKIQHELIRSEEK”, the “total protein half-life in vivo” value was found to be 1.81 h under setting [1], 1.13 h under setting [5], 10.3 h under setting [8] and 4.57 h under setting [10].

As for “MVINCAFIGFGKSTTRYHLPYVLNRKDSWHVAHIFRRHAKPEEQAPIYSHIHFTSDLDEVLNDPDVKLVVVCTHADSHFEYAKRALEAGKNVLVEKPFTPTLAQAKELFALAKSKGLTVTPYQNRRFDSCFLTAKKAIESGKLGEIVEVESHFDYYRPVAETKPGLPQDGAFYGLGVHTMDQIISLFGRPDHVAYDIRSLRNKANPDDTFEAQLFYGDLKAIVKTSHLVKIDYPKFIVHGKKGSFIKYGIDQQETSLKANIMPGEPGFAADDSVGVLEYVNDEGVTVREEMKPEMGDYGRVYDALYQTITHGAPNYVKESEVLTNLEILERGFEQASPSTVTLAK”, the “total protein half-life in vivo” value under setting [1] stood at 5.85 ± 0.38 h; the “total protein half-life in vivo” value under setting [2] is 4.79 ± 0.2 h; the “total protein half-life in vivo” value under setting [3] stood at 5.38 ± 0.92 h; the “total protein half-life in vivo” value under setting [4] came out at 4.78 ± 0.095 h; the “total protein half-life in vivo” value under setting [5] amounted to 4.91 ± 0.26 h; the “total protein half-life in vivo” value under setting [6] amounted to 3.04 ± 0.12 h. For the same sequence, the “total protein half-life in vivo” value under setting [7] is 5.58 ± 0.54 h; the “total protein half-life in vivo” value under setting [8] stood at 11.6 ± 0.32 h; the “total protein half-life in vivo” value under setting [9] was 4.75 ± 0.06 h; the “total protein half-life in vivo” value under setting [10] is 8.63 ± 0.17 h; the “total protein half-life in vivo” value under setting [11] is 5.842 ± 0.057 h; the “total protein half-life in vivo” value under setting [12] came to 12.3 ± 1.1 h.

As to “MSNFINIHVLISHSPSCLNRDDMNMQKDAIFGGKRRVRISSQSLKRAMRKSGYYAQNIGESSLRTIHLAQLRDVLRQKLGERFDQKIIDKTLALLSGKSVDEAEKISADAVTPWVVGEIAWFCEQVAKAEADNLDDKKLLKVLKEDIAAIRVNLQQGVDIALSGRMATSGMMTELGKVDGAMSIAHAITTHQVDSDIDWFTAVDDLQEQGSAHLGTQEFSSGVFYRYANINLAQLQENLGGASREQALEIATHVVHMLATEVPGAKQRTYAAFNPADMVMVNFSDMPLSMANAFEKAVKAKDGFLQPSIQAFNQYWDRVANGYGLNGAAAQFSLSDVDPITAQVKQMPTLEQLKSWVRNNGEA”, the “total protein half-life in vivo” value was 6.17 ± 0.55 h under setting [1]; 2.77 h under setting [2]; 2.71 h under setting [4]; 2.13 h under setting [6]; 4.22 h under setting [7]; 5.28 h under setting [11]. For the same sequence, the “total protein half-life in vivo” value under setting [12] was 11.4 ± 1.2 h.

Values taken from the supplement of paper PMC11246515.
